Test results: the DeepSol protein solubility set

test: soluble on expression in E. coli; label from the status in PepcDB or PDB records

Sequence	soluble on expression in E. coli
MGSDKIHHHHHHMHTGPTVFKQLLQFLPRYEFNLCVRRHRGEYREKKFSTYDQFLCLAYAQMAGRESLRDIETCLNSHQEKLYHIGFRGDVSRTTLADANERRDWRIFQDFGHVLIGIAQQLYQADAISVELTQPLYAFDSTTIDLCLTLFPWAEFRKTKAAVKMHTLIDLRGPIPTWVTITTGKVHDVRMLDHLPVAKDAIYTMDRGYVDFARLHSIHKQGAFFVVRAKDNLKCQRLYSHPKDKESGVRADQIITLVTQKSKKGYPEKLRRVSYVDKERNKRLVFLTNNFEIPAATVAAIYKQRWQVELFFKWIKQHLRIKSFIGTSVNAVKSQIWVALCIYLLVAITKKKLGVPCSLYTFLQILEVNLFEKKPISSLVAEALKRNADYPERNQLNLFNY	not soluble
MPQDVDFHIPLPGRQSPDHARAEAEQLAWPRSLGLIRSDAAAERHLRGGYADLASRFYPHATGADLDLGVDLMSWFFLFDDLFDGPRGENPEDTKQLTDQVAAALDGPLPDTAPPIAHGFADIWRRTCEGMTPAWCARSARHWRNYFDGYVDEAESRFWNAPCDSAAQYLAMRRHTIGVQPTVDLAERAGRFEVPHRVFDSAVMSAMLQIAVDVNLLLNDIASLEKEEARGEQNNMVMILRREHGWSKSRSVSHMQNEVRARLEQYLLLESCLPKVGEIYQLDTAEREALERYRTDAVRTVIRGSYDWHRSSGRYDAEFALAAGAQGYLEELGSSAH	soluble
MSAKQKELERLLELKKKQEEQQVLNQKDMLERIKLENKYMEFLQMTSQQMEEELKKRGPVKEVEVKGKDIDPIIADYKKLYSKESWYKEPETKDGKTHLTFPSQEAAGTFFKDQAEKNRSFIVIDAATNKVLAYSNGDGKLYNGNGSLYQGGDFKASKEDFTSFKMPEREEPKMGMQL	not soluble
MTEQLFDSLAKQNGFRVLSGGKYGGNNGFDHVWQAADGSVVLIVESKQIRNGTVQLNPNGAGGYTQMSREWIKQVVKSLPDGSPAKAVVLKANQNGKLKTAIAGVDRQTGKAVILSVKVPSKTNIRR	not soluble
MSLSHQQKVYIPKEARTNQYITAEIKVTDELLNQYPDYHSCYQTLSRIIFNLAEQHDLRNVHVITNDKLPVVRYHTEAYCFQTAEQILFFYNPAYHEAQNLFTADNYRARKLRIVFLATGDEIRSNSANFHTRVQEFLNELMPKLPIKDLKVKIRDHQHLSYDLFAKSKGNKETYGYKLRAIAPRYKARKCELPENVSSLTYVTVSLPLSRKLKQGLLPESATDFSPLYQHLEDNFLKAAANKQLTRLAMIANGLTPLVRNSKFEKLDSKAEVQMIGFDPNATEQQVIRRWDADNLVEAAHFTIVAGAKDCDDAGYGRFMNNVEAALKSFAAEIGLDPEREDLVTRFHQHISYQL	soluble
DERLLAREVQKMRFRRSTYSSPQPATQQPANGSERKNDSDNLVGAENHSAETPTDNRSAEVEQPYYPAKYEEELLRLIIRYGERKLLIYRHEEGAEKQTPSEVALAYYIKSDLNADGVDIGTDVFRQILDEAAEQSFDSGFVAAKYFRDHPNAQISHIAVELLTNRYALSRIHYGKGDESNAEEDLQMRVERELLTIKNVFIQVQIRALQKEIAQAQKAGDIELQLEIMNELRSMNEMKSELAHRLGDRTVLP	not soluble
MNQEVRFSRLEPEQRKALLIEATLACLKRHGFQGASVRKICAEAGVSVGLINHHYDGKDALVAEAYLAVTGRVMRLLRGAIDTAPGGARPRLSAFFEASFSAELLDPQLLDAWLAFWGAVGSIEAIGRVHDHSYGEYRALLVGVLRQLAEEGGWADFDAELAAISLSALLDGLWLESGLNPATFTPRQGVQICEAWVDGLEAGAHRRFRRAMEAC	soluble
MQLRSVIAADHPALFALWSRTPGIRLRAEDAYPFFLAYLQRNPGLSLLVETEGEVIACLMAGHDGRRGYLQHLVVDPGYRGLGLARRMLDEVLARLAREGIGKSHVFVLDAAEEAQAFWRAQSDWERRKDIQVFSTREGHA	soluble
MAHHHHHHMECGYRNEGKFHQVVLNIKEKIEKHDLSKWKDIVKPEEGPKYDEYFERLLRGGTPEKDSHEEDSNEKHTHETHDLPAEQAEETPPEVCEPPGDEKNKTEFQLNKEFFDKISNKEKFYFLLNIKEMMETSWLLAQKRLEGIKLEEKSKPVNVQDLLNYSQKIADTTCAPPECDNINDKIMHQEYYPNYHFLNFVNVEEIHLSKLFQLQKYSTVCFPPIITIQEGKDNMLAIDITCSTPHATIYYRMNDDPNEQIYNTDDKPQIRKRKKVNVYAWSVKDGHIKSRVSCISKSYKVEEDDSFPLSDNLPNKEQGEQQTGSSKMGVEANAPGKPSQITNVFKNLGFLLSRKKEKTEEPSSNGESSSEG	not soluble
MAVPGFTFDEALLTEIAASFQLRASNINALTALVQRLSGDFDRSTPQVMNMATGAGKTYVMAAFIEYMRRQGLRNVMIVTPGLVVQTKTVANFTQGSPKFIDGSPVPPRVVTPENYKSNPADQTAFTEQGASNVYVFNVQQLIGPKDMDGDTTSGSKAAVARGVHKFSEYAGVLYDELKNMDDLVVLADEHHLYSAKAKAFHAAIHDLEPAALVGLTASPGEKDETIFTYPLYKAIADKNVKQPVIVYRKDGYGELGEYQQLKDAKTLLETKAGHYAVKNQEEGTSPISPVMLVVCEDIAHATRIEETLVGPDLFGDPYAVLRVDSDSMNEEKAALLDAIDTPDSPVRAVVSVNKLKEGWDCRSIAVMVTLRAMDSDILTQQTLGRGLRLPYGKYAEVEAIDTLDIVAHESFQRLLSSEKVNKSFGFDKRKTSQPAPPQPVHPMDVTPPTPVPTPDLDPVPGGNTTAPTPVLPPADPQPVAPDLDKGTDTRPPLGLKELGGDGASPEDLYPEPTPLAVVELVEKFRDVSFLFPRTTYTAKNAAYPLEKLMQDEIIQVARQITDNPQAVLERLALAGDEAQGRVMAKRLTQGTIDAIALDEDAVKKQLVGAIITHRRVERSPENISQAKNRIAPLIYNNALATTWTVDTLHVASILLGKAIDASVRQFLANLEPDVTLVPLTMPTRTRFELGVGKTIEPRPGEFDKYINGQFYSGWTRNLYTAASFDSNSAEHKLACDLDVSPDVEWWTRLYMADGASIDYQVGKTYYPDFVVRDREGRTWIVEGKDAGGRTNEEVKAKRDAAELALNLMASNEDMGALKVGYIIAYEDTIKEAGSWSRLISMSGAVKSAN	not soluble
PLKEQKVINTANITTNSKLDLAEYENGLMNIAKEQFDTENHVLQLNQYIPEKLVDELVAKVKAPVLTNIIEQDYFGKQNSNELSLSGVVIGLAMSSSVSNEEALSKGTEVAGQLIEAIHKNGKYNKSPITFAIFKQESTSSLKNGTYIASATVQKNDTNLGNWNAIEEKAYSYPSDEFTQAHGEDNEKINKFAEAMKGFSPGDFIPVNAKVSYKKNQMDTLNMDIVIKYNGKTELMALTQLAAQSMLDQLPKDAKVQLQIKSENKIEAIVIKEKNSDKPFVSFL	soluble
